± gives the uncertainty stated by the source.
assay: amyloid nucleation score (Sup35N fusion, yeast selection) (log enrichment); library NNK2; higher = more nucleation; inactive = no reads after selection
Method in brief: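 Yeast lacking psi expressed peptides of 20 random codons fused to Sup35N, received 100 μM copper sulfate for 24 hours, and were then grown for 7 days at 30°C on medium lacking adenine and uracil. Illumina sequencing of input and output plasmid inserts provided the reads. Nucleation scores are DiMSum log enrichments of output over input, centred on the mode of non-aggregating sequences. Any sequence with under 100 input reads was excluded.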

Compared with FKSVLWCKFLTDIG, WIWEKSHWSENISMVRCDVS is lower in amyloid nucleation score: 6.04 ± 0.064 for the first, 0.379 ± 0.55 for the second.

YSSVSR and VMFYRRYYFKSMANLVDTFR are within error of each other in amyloid nucleation score: -1.05 ± 0.55 for the first, -0.932 ± 0.48 for the second.

PGLRGGA and CINANRGRFLKEIMDLVLRE are within error of each other in amyloid nucleation score: -0.398 ± 0.76 for the first, -0.586 ± 0.23 for the second.

Going from RFCWAMYNGFPHK to FTVRQTKAAGECSSKQWGTL, the amyloid nucleation score falls from 4.33 ± 0.059 to 3.18 ± 0.098.

Compared with SPLHRDCGNQLTE, LYVTQTS is lower in amyloid nucleation score: 0.814 ± 0.17 for the first, -0.053 ± 0.35 for the second.

First: PVIIAW
Second: DIMTYPLRSINRRFKGVGRR
The amyloid nucleation score of the first is lower: 0.14 ± 1 for the first, 4.481 ± 0.039 for the second.

Compared with LFLQVGTAVGIRYINGAYLV, YRWDHILDVGSSFVL is higher in amyloid nucleation score: -0.959 ± 0.38 for the first, 3.61 ± 0.064 for the second.

PGSKPPWVSYGNPSTMAIGM and RDQRLCV are within error of each other in amyloid nucleation score: -0.472 ± 0.79 for the first, -1.18 ± 1.1 for the second.

VICCEVLPSAPLSLWMNLKV and NSSTVGMIAF are within error of each other in amyloid nucleation score: -0.469 ± 1.1 for the first, -0.317 ± 0.22 for the second.

First: TGDSVGLGLLGSWRNEKVCD
Second: LLGSLLIFPMES
The amyloid nucleation score of the first is higher: 0.088 ± 0.3 for the first, -1.52 ± 0.78 for the second.

Compared with RVISGSMVETIDEDIVEGVN, PGLTVYFGTVRMKVHCWSYR is higher in amyloid nucleation score: -0.332 ± 0.3 for the first, 9.779 ± 0.029 for the second.

LVLYVSKMPYMSEPRSIILR and DVHTVCASSKHHLRVVKAVT are within error of each other in amyloid nucleation score: 0.64 ± 0.58 for the first, 0.494 ± 0.8 for the second.

First: RNLGLMVTILSAELFRRCLW
Second: KTPVGYTRRGSPFTR
The amyloid nucleation score of the first is lower: -0.812 ± 0.23 for the first, 1.16 ± 0.33 for the second.

SCFGNVYGGVVLQAFGGVVS and GCMLSRMNTGLSRLGLFFDS are within error of each other in amyloid nucleation score: 0.082 ± 1.1 for the first, -1.25 ± 0.55 for the second.

Compared with SGHTRVGDFSF, FALHGEFFYHKKRSQGFRAH is lower in amyloid nucleation score: 0.158 ± 0.3 for the first, -1.36 ± 0.61 for the second.

Going from TNTCFFSNGGRTSKWHPVLV to DLGDKFL, the amyloid nucleation score rises from 0.135 ± 0.56 to 1.67 ± 0.23.

First: LRFYPW
Second: SLLYRD
The amyloid nucleation score of the first is higher: 1.14 ± 0.36 for the first, -0.817 ± 0.48 for the second.

LGYGRWCKVARPEYESGLTM and SCALF are within error of each other in amyloid nucleation score: 0.042 ± 1.1 for the first, -0.679 ± 1.1 for the second.

Going from FQIMKAYDTLPFLVYPVTGD to TLKYSVVNTLMTSMHDF, the amyloid nucleation score rises from -0.117 ± 0.79 to 3.56 ± 0.082.

Compared with DNNTIWD, MCPNGPAVIGMLFRLHTLFK is lower in amyloid nucleation score: 0.94 ± 0.23 for the first, 0.168 ± 0.35 for the second.

YRVAMYMDSVFIMYAYDIPN and LRQCKGLRVLLPTGWSYKCE are within error of each other in amyloid nucleation score: 2.1 ± 0.14 for the first, 1.67 ± 0.58 for the second.

SEEIGLT and RSIMIRHLKFRARGHTFSVN are within error of each other in amyloid nucleation score: 0.426 ± 0.26 for the first, 0.143 ± 0.36 for the second.

TNSYANMSGTAGNYRSYNIA and GMRVMVLFDFLYYRCLENLL are within error of each other in amyloid nucleation score: -0.522 ± 0.63 for the first, -0.632 ± 1.1 for the second.

Going from PFSRLNPRDPLWVEMFVCWQ to YSSNMASALSYICDPMIFNF, the amyloid nucleation score falls from 3.48 ± 0.066 to -0.703 ± 0.56.

First: AFVSSQVSTYYNFRTKDYSW
Second: IKCKKKYRSYWNRG
The amyloid nucleation score of the first is higher: 3.68 ± 0.098 for the first, -0.27 ± 0.46 for the second.

Compared with LLFVLAKGNKTCSTPCIEIH, EWTLWSSGLRAES is higher in amyloid nucleation score: -0.628 ± 0.27 for the first, 0.217 ± 0.3 for the second.

DRAGLATLNSLELGDDGFLG and SRNIMLGWVPWYYCWKAPSI are within error of each other in amyloid nucleation score: -1 ± 0.78 for the first, 0.034 ± 0.63 for the second.

First: VDFVIGLLKPTVVKNHGCWS
Second: KFKLLMTSRWDTFNVADTYD
The amyloid nucleation score of the first is lower: -0.301 ± 0.65 for the first, 5.04 ± 0.042 for the second.

First: YSNYTHRNSTLGFKQISRTS
Second: RLYPLIVQFFMVCKT
The amyloid nucleation score of the first is lower: 0.063 ± 0.79 for the first, 1.48 ± 0.23 for the second.

AVPCNC and WLRLPICDLQLLNWADLRFV are within error of each other in amyloid nucleation score: -0.216 ± 0.62 for the first, 0.236 ± 1.1 for the second.

Compared with WLVFQFYVRGRREMVS, ELAHQNENFRGRRFVAQ is lower in amyloid nucleation score: 1.4 ± 0.2 for the first, -0.038 ± 1.1 for the second.

SRSVLSNSDTPTNNAVNCVA and MMLSYILR are within error of each other in amyloid nucleation score: -0.027 ± 0.56 for the first, 0.223 ± 0.77 for the second.

Going from YTNVVYNYLRSCCGAWYGQR to MDVGYCRNAVHRMLGMNCMM, the amyloid nucleation score falls from 9.015 ± 0.068 to 4.95 ± 0.062.

MFEIIPFPTSISDRGSTIYM and MNWHTSYCLFDVRAKVAGNV are within error of each other in amyloid nucleation score: -0.855 ± 0.55 for the first, -0.393 ± 1.1 for the second.

MIQHICELLG and VWKINISWRPSLSLLVIRLV are within error of each other in amyloid nucleation score: -0.317 ± 0.32 for the first, -0.594 ± 0.27 for the second.

Going from AAWIAMCRILKQPTRCGHFL to GWRFL, the amyloid nucleation score falls from 6.15 ± 0.073 to -1.17 ± 0.54.

RGGTKRGELCDALNHQFSVL and CLRFC are within error of each other in amyloid nucleation score: 0.413 ± 0.22 for the first, -0.453 ± 1.1 for the second.

Compared with VWRWSKRNATYIGAGIWSGR, GHMLLFTFFR is higher in amyloid nucleation score: 1.42 ± 0.21 for the first, 5.965 ± 0.035 for the second.

VCDGV and SRNISQKLHTYMTYGSKVGY are within error of each other in amyloid nucleation score: -0.582 ± 0.44 for the first, -0.229 ± 0.32 for the second.

Going from YIFSIS to LCHLVFVVSDWRQRLRVFTV, the amyloid nucleation score rises from -1.26 ± 0.62 to 4.37 ± 0.05.

First: TSVFFQGIALP
Second: ALGYSRLTEYGLDRMVQTAC
The amyloid nucleation score of the first is higher: 8.228 ± 0.029 for the first, 0.908 ± 0.52 for the second.

Going from FICVCIVKNKGMGRPCN to VRFVINSWLTCVYERNIKLL, the amyloid nucleation score falls from 2.72 ± 0.1 to -0.058 ± 0.22.

First: WTDTGMTYLFCNLFWLACGI
Second: YFMLPLYMMLLGYFYKTICS
The amyloid nucleation score of the first is lower: 5.634 ± 0.03 for the first, 6.933 ± 0.067 for the second.

Compared with NGWLFFWFSIRITTSQVTSL, FSWVIYYE is lower in amyloid nucleation score: 2.54 ± 0.098 for the first, -1.27 ± 1.1 for the second.

GFNGRALKLERARDLVCGRM and VRSPCVDVYFPYSLVLDMCL are within error of each other in amyloid nucleation score: 0.386 ± 0.29 for the first, 0.614 ± 0.62 for the second.

Going from VIKFDQISCNSFPNSLL to YGGKSHPLIWFACIWSYIVN, the amyloid nucleation score rises from -0.479 ± 0.55 to 3.04 ± 0.07.

Going from LVLWM to GGTSAAS, the amyloid nucleation score falls from 1.68 ± 0.36 to 1.01 ± 0.22.

First: LICAL
Second: SLQRIKGNFQPMVFAINMFN
The amyloid nucleation score of the first is lower: 0.61 ± 0.39 for the first, 4.6 ± 0.11 for the second.

First: NRHRWLYLRMRLYRYLEGVR
Second: LSINLSDMNFVVHSCLGSLG
The amyloid nucleation score of the first is lower: 1.18 ± 0.47 for the first, 5.45 ± 0.077 for the second.

VMLRYNSYGNYLLRWHTDDA and VLFSDA are within error of each other in amyloid nucleation score: -0.843 ± 0.44 for the first, -0.08 ± 1 for the second.

Compared with SNPDSLVLAGMLARMAYRKL, RDPSTELMISRLARTESCGT is higher in amyloid nucleation score: -0.423 ± 0.61 for the first, 4.94 ± 0.065 for the second.

Compared with WVVRGWLGV, WFWNGLFNIRTVLDMHALCT is higher in amyloid nucleation score: 0.23 ± 0.38 for the first, 4.11 ± 0.088 for the second.

Going from VLRLRGLRRWI to AMRFLALAWWTPGFSIGELM, the amyloid nucleation score rises from 0.638 ± 0.23 to 4.846 ± 0.035.

Going from LAPVYEFEVWIHGIRGRCAW to SLGPRRSCCTIWKVWAYAGS, the amyloid nucleation score falls from 4.18 ± 0.065 to 0.241 ± 0.42.

FLLPIWGSNHNTLNFR and HVGVHSNFLQIS are within error of each other in amyloid nucleation score: -0.547 ± 1.1 for the first, -1.34 ± 1 for the second.

IVHLSHQG and FFYYMRSIT are within error of each other in amyloid nucleation score: -1.25 ± 0.62 for the first, -1.9 ± 0.78 for the second.

DYWFRGAESCTCGLE and TVSYKWSSMEVITKYKGWSR are within error of each other in amyloid nucleation score: 0.012 ± 0.63 for the first, 0.897 ± 0.28 for the second.

Going from NRACFGYEDKLRAMLHLYRS to VIIRSFR, the amyloid nucleation score falls from 0.201 ± 0.45 to -0.629 ± 0.34.

Compared with RFTVFRSLKNYSRMHPLIKG, RQIALCGLI is lower in amyloid nucleation score: 4.929 ± 0.046 for the first, 3.47 ± 0.096 for the second.

For FDLNYPSVSIIGKVLCSGPV, the amyloid nucleation score was “inactive”.
In the case of YTLNPGFHHRFCVWTA, the amyloid nucleation score is reported as “inactive”.
In the case of TANLKDSGQSYFKTRSVWTF, the amyloid nucleation score is reported as “inactive”.
With SIIWQRLLGIFNFLGAPESM the amyloid nucleation score was “inactive”.
With GGYDP the amyloid nucleation score was “inactive”.
With VCYGVSFPIGWGYQYHNRNV the amyloid nucleation score was “inactive”.
In the case of LHPLVSLVVHTFMPEVRLVL, the amyloid nucleation score is reported as “inactive”.
For IVIPSSK, the amyloid nucleation score was “inactive”.
With LSYRHNGPHPGGYNCTGSRV the amyloid nucleation score was “inactive”.
With IYLQGAGLL the amyloid nucleation score was “inactive”.
In the case of FCFMIEGIFMCRLLLSRASF, the amyloid nucleation score is reported as “inactive”.

— the supplement of paper PMC12042874
